Results on 1 molecule are retold here after patent US20020077289A1, “Angiostatin and endostatin binding proteins and methods of use” (priority 2000, published 2002).

Data set [1] has as its system G-actin. The experiment in a line: Actin polymerization light scatter assay. The data set is classed as biochemical. As to conditions: G-actin/Endostatin nucleation complexes. From the text:
As a result of the inventors findings, also included herein are_antiangiogenic actin-binding molecules. Though not wishing to be bound by the following theory, it is believed that since actin polymerization is affected by Endostatin it could possibly mean that Endostatin is binding to the actin component of the microfilaments, in addition to or in association with tropomyosin. […] Accordingly, molecules such as Endostatin that have an effect on actin polymerization will have an effect on microfilaments resulting in anti-angiogenic activity through modification of cell motility, and induction of cell apoptosis. Preferred embodiments of the present invention include compositions comprising proteins and chemicals that bind tropomyosin isoforms, such as hTM3. In certain embodiments, such compositions may be characterized as antiangiogenic actin-binding molecules.

For data set [2], the system named is intratumoral blood flow. As to conditions: systemic rhEndostatin therapy; cited from earlier work.
For data set [3] the following is noted: parenteral administration; cited from earlier work.
The nature of data set [4]: Pharmacokinetics: serum rhEndostatin levels after s.c. administration. It is filed as in vivo, C57BL/6J mice. Conditions: for AUClast: sera 0.17-2 hours. How it is done: To determine the pharmacokinetics, C57BL/6J mice (3 per time point) were dosed s.c. with 1.5 nmol of rhEndostatin alone or in combination with 375 nmol of either E37 or control peptide. Sera was collected 0.17, 0.5, 1 and 2 hours following s.c. administration. Serum drug levels were determined using an Endostatin EIA kit (Cytlmmune Sciences, College Park, Md.) according to the manufacture's instructions. Pharmacokinetic analyses of the serum concentration versus time data were performed by nonlinear least square minimization using RSTRIP (Version 4.03, MicroMath Scientific Software, Salt Lake City, Ut.).
Groups of mice (3 mice/time point) were injected s.c. with 1.5 nmol of rhEndostatin alone or in combination with a 250-fold molar excess of either E37 or control peptide. Sera were collected at 0.17, 0.5, 1 and 2 hours following s.c. administration, and assessed for serum rhEndostatin levels as previously described (Sim et al.)

For data set [5], the system named is primary cultures of pericytes. The experiment in a line: Proliferation of PDGF-BB or 20% fetal calf serum stimulated pericytes (thymidine incorporation, MTT). The data set is classed as cell-based. From the text: Endostatin protein results in an inhibition of proliferation of PDGF-BB or 20% fetal calf serum stimulated primary cultures of pericytes and to a lesser extent fibroblasts. […] The results have been confirmed using a MTT proliferation kit.
Endostatin protein tends to have a greater effect on cells in the earlier stages of differentiation. While such cells constitute a small fraction of the total number, inhibiting their proliferation may have significant effects on the final total cell number. Endostatin protein's effect on cells early in the differentiation pathway results in a reduction of 70-80% of the final cell number. Endostatin protein also changes the morphology of these cells (data not shown).
In general terms: Dividing cells build labelled thymidine or BrdU into new DNA.

Data set [6] has as its system viable HUVECs. The experiment in a line: Internalization of Alexa Fluor 488 labeled rhEndostatin by viable HUVECs. The data set is classed as cell-based, human. How it is done: To determine whether live endothelial cells actively internalize Endostatin protein, viable HUVECs were incubated with Alexa Fluor™ 488 labeled rhEndostatin protein. […] Internalized rhEndostatin was rapidly processed such that by 60 minutes, little if any intercellular fluorescence was detected (data not shown).

Data set [7] relates to B16-BL6 melanoma cells. Put plainly: B16-BL6 experimental metastasis assay. The data set is classed as in vivo, C57BL/6J mice. How it is done:
C57BL/6J mice were injected via the tail vein with 5×10^4 B16-BL6 melanoma cells on day 0. On day 3, groups of five mice received daily subcutaneous doses of either buffer control, 1.5 nmol (1.5 mg/kg/day) of rhEndostatin in combination with 0, 15, 75 or 375 nmol of control or E37 peptide, or control or E37 peptide alone for eleven days. All mice were sacrificed on day 14, and the number of pulmonary surface metastases in each animal counted. Error bars indicate standard deviation of the mean.
C57BL/6J mice (n=8) were injected intravenously (i.v.) with 5×10^4 B16-BL6 cells/mouse. Three days later treatment commenced. 100 μl of citrate-phosphate buffer (66 mM Sodium Phosphate, 17 mM Citric acid, 59 mM NaCl pH 6.2) containing 1.5 nmol of rhEndostatin and 100 μl of PBS containing either 0, 15, 75 or 375 nmol of control or E37 peptide were mixed and injected subcutaneously (s.c.) daily for 11 days. All mice were then sacrificed, their lungs removed and the number of surface metastases counted. Results were analyzed for statistical significance using the 2-tailed Student's t-test.
The following experiment was conducted to determine the interaction of E37 peptide and Endostatin protein. Briefly, the B16BL6 experimental metastasis assay, as known to those of skill in the art and further described in International Patent Application number PCT/US99/11418, was performed as follows. 5×10^4 B16-BL6 cells in 200 μl of PBS were injected into C57BL/6J mice via the tail vein. Three days post injection treatment was started. The injection received by eight groups of mice were: 1) citrate phosphate/PBS buffer, 2) ^30 μg Endostatin protein (in 100 μl PBS), 3) 30 μg Endostatin protein (in 200 μl PBS), 4) 30 μg Endostatin protein plus 50 times molar excess of control peptide (in 200 μl PBS), 5) 30 μg Endostatin protein plus 250 times molar excess of control peptide (in 200 μl PBS), 6) 30 μg Endostatin protein plus 10 times molar excess of E37 peptide (in 200 μl PBS), 7) 30 μg Endostatin protein plus 50 times molar excess of E37 peptide (in 200 μl PBS), and 8) 30 μg Endostatin protein plus 250 times molar excess of E37 peptide (in 200 μl PBS). Doses were administered daily for eleven days posterior to the thoracic cavity subcutaneously. All mice were sacrificed, the lungs removed and the number of surface metastases in each animal were counted under a stereo microscope.

Data set [8] has as its system mammary tumor. Conditions: i.v. technetium (99mTc) labeled rhEndostatin, 100 μCi/rat; personal communication; cited from earlier work.

B1: rhEndostatin: recombinant human Endostatin, antiangiogenic fragment of a C-terminal non-collagenous region of a collagen protein, produced in P. pastoris (protein)
chain: HSHRDFQPVLHLVALNSPLSGGMRGIRGADFQCFQQARAVGLAGTFRAFLSSRLQDLYSIVRRADRAAVPIVNLKDELLFPSWEALFSGSEGPLKPGARIFSFDGKDVLRHPTWPQKSVWHGSDPNGRRLTESYCETWRTEAPSATGQASSLLGGRLLGQSAASCHHAYIVLCIENSFMTASK
As for B1, the “effect on actin polymerization” value in data set [1] was “shorten the lag phase and facilitate actin polymerization”. Besides, the “reduction of intratumoral blood flow” value in data set [2] is 50%. The circulating levels entry in data set [3] is recorded as “nM range”. Further, the AUClast stood at 4544 ng·min/mL in data set [4] (1.5 nmol rhEndostatin s.c. + 250x E37 peptide), 5552 ng·min/mL in data set [4] (1.5 nmol rhEndostatin s.c. + 250x control peptide) and 5370 ng·min/mL in data set [4] (1.5 nmol rhEndostatin s.c. alone). Also, in data set [4] (1.5 nmol rhEndostatin s.c. co-administered with 250-fold molar excess of E37 peptide), the “AUClast relative to rhEndostatin alone or with 375 nmol control peptide” value is listed as 85%. In data set [5], the “differentiation of pericytes to fibroblasts” value is reported as “does not appear to affect”. Also, the “reduction of the final cell number” value in data set [5] (effect on cells early in the pericyte/fibroblast differentiation pathway) is 70-80%. Also, in data set [5] (stimulated with PDGF-BB or 20% fetal calf serum), the “thymidine incorporation into primary cultures of pericytes” value is reported as “consistent reduction in thymidine incorporation”. In addition, the “internalization by live endothelial cells” value in data set [6] is “rapidly internalized and translocated predominantly to the nucleus”. The “inhibition of lung metastasis” value in data set [7] (1.5 nmol rhEndostatin co-administered with 250-fold molar excess of E37 peptide) is on record as 11%. The “inhibition of the formation of lung metastasis” value in data set [7] (30 μg Endostatin protein alone, daily s.c. for eleven days) is listed as “approximately 79%”; in data set [7] (30 μg Endostatin protein plus 10 fold molar excess of E37 peptide) it was “approximately 76%”; in data set [7] (30 μg Endostatin protein plus 50 fold molar excess of E37 peptide), “approximately 61%”; in data set [7] (30 μg Endostatin protein plus 50 fold molar excess of negative control peptide) it was “approximately 79%”; in data set [7] (30 μg Endostatin protein plus 250 fold molar excess of E37 peptide) it was “approximately 21%”; in data set [7] (30 μg Endostatin protein plus 250 fold molar excess of negative control peptide), “approximately 73%”. In addition, the “inhibition of growth of experimental B16-BL6 lung metastases compared to buffer treated control mice” value in data set [7] (daily 1.5 nmol rhEndostatin (1.5 mg/kg/day)) is “greater than 70%”. The “time after injection at which the tumor could be visualized” value in data set [8] was 0.5 to 4 h.
